Here are results for six molecules from US20140294828A1 (COMPLIX, published 2014).

Experiment [1] has as its target T1, bL4_C36 (biotin-GSGS-C36-NH2, HIV-1 HXB2 Env gp41 HR2 peptide) (HIV-1 (HXB2 strain), N-terminal biotin; C-terminal amide).
T1 construct: also called C-peptide
T1 peptide: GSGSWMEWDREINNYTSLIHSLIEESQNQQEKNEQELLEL
Nature of the experiment: ELISA, bL4_C36 immobilized on neutravidin-coated plates, detection with Penta-His-HRP antibody, A450nm. (In general: In an ELISA, binding on a coated surface is turned into a signal by an enzyme label.)

Experiment [2] has as its target T1, bL4_C36 (biotin-GSGS-C36-NH2, HIV-1 …). Kind of experiment: SPR, bL4_C36 immobilized on a streptavidin sensor chip, Alphabody injected at 250 to 7.8 nM, Langmuir model (phase 1). Background: Surface plasmon resonance follows binding to a sensor surface in real time, without labels.
The target is the same in experiment [3]. Kind of experiment: SPR, bL4_C36 on streptavidin chip, Langmuir model.
The target is the same in experiment [4]. Nature of the experiment: ELISA, peptide on neutravidin-coated plate, Penta-His-HRP detection.
For experiment [5] the target is unchanged. Kind of experiment: SPR, bL4_C36 on streptavidin chip; disulfide dimer, bidentate binding.
The target is the same in experiment [6]. Kind of experiment: SPR, bL4_C36 immobilized on a streptavidin sensor chip, two-step kinetic binding model, phase 1.
The target is the same in experiment [7]. Nature of the experiment: SPR, bL4_C36 immobilized on a streptavidin sensor chip, two-step kinetic binding model, global constant of phases 1+2 (KD1*KD2).
The target is the same in experiment [8]. Kind of experiment: SPR, two-step model, global KD.
Experiment [9] shares this target. Nature of the experiment: SPR, two-step model, first fast association phase.
The target is the same in experiment [10]. Nature of the experiment: SPR, bL4_C36 immobilized on a streptavidin sensor chip, two-step kinetic binding model, phase 2 (dimensionless).
The target is the same in experiment [11]. Kind of experiment: SPR, two-step model, second phase.

B1: single-chain Alphabody scAB_Env04 (designed binder)
chain: MGHHHHHHHHHHSSGHIEGRHMSIEEIQKPIATIQETIAWIQKTIYGMTGGSGGGSGMSIEEIQKQIAAIQKQIAAIQKQIYAMTGGSGGGSGGGSGGGSGMSIEEIQKQIRAIFEQIVAICKQIIAMTP
notes: Soluble construct with N-terminal His10 tag (pET16b)
In general, EC50 (read off the curve) refers to the concentration needed to bring the measured effect to its halfway point. Usually Kd stands for the constant that tells how readily two partners part at equilibrium. Low values mean a tighter complex, high ones a looser complex. For orientation: koff means the rate constant with which the complex falls apart. Low values mean slow dissociation, high ones fast dissociation. By kon is commonly meant the second-order rate constant of association. A lower kon goes with slower complex formation. As to B1, the “EC50 (read off the curve)” value in [1] was approximately 20 nM. In experiment [2], this molecule yielded a Kd of 167 nM, a koff of 0.1 s⁻¹ and a kon of 570000 M⁻¹ s⁻¹. In [3], this molecule yielded a Kd of 200 nM.

B2: single-chain Alphabody scAB_Env03 (designed binder)
chain: MGHHHHHHHHHHSSGHIEGRHMSIEEIQKPIATIQEAIAWIQKKIYMMTGGSGGGSGGGSGGGSGMSIEEIQKQIAAIQKQIAAIQKQIYAMTGGSGGGSGGGSGGGSGMSIEEIQKQIVAIMEQIVAIVKQISAMTP
notes: expressed soluble in E. coli with an N-terminal His10 tag; not shown: N-terminal 10-histidine tag from pET16b
One may read the EC50 as the concentration giving half of the maximal effect. In turn, B2 yielded an EC50 in experiment [4] of approximately 6 nM. Further, the “EC50 (read off the curve)” value in experiment [1] was approximately 5 nM. For the same molecule, the Kd in [2] stood at 211 nM; in experiment [3] it was 200 nM.

B3: single-chain Alphabody scAB_Env02 (designed binder)
chain: MGHHHHHHHHHHSSGHIEGRHMSIEEIQKPIASIQELIATIQKYIYIMTGGSGGGSGGGSGGGSGMSIEEIQKQIAAIQKQIAAIQKQIYAMTGGSGGGSGGGSGGGSGMSIEEIQKQIQAITEQIIAISKQIIAMTP
notes: as for B1
For B3, the “EC50 (read off the curve)” value in experiment [1] was approximately 20 nM.

B4: single-chain Alphabody scAB_Env05 (designed binder)
chain: MGHHHHHHHHHHSSGHIEGRHMSIEEIQKHIASIQEYIAWIQKEIYRMTGGSGGGSGGGSGGGSGMSIEEIQKQIAAIQKQIAAIQKQIYAMTGGSGGGSGGGSGGGSGMSIEEIQKQILAIMEQIYAIVKQINAMTP
notes: as for B1
As to B4, the “EC50 (read off the curve)” value in [1] is approximately 40 nM. In [2], this molecule had a Kd of 3930 nM, a koff of 0.32 s⁻¹ and an on-rate (kon) of 81000 M⁻¹ s⁻¹. The molecule further yielded a Kd in experiment [3] of 4000 nM.

B5: single-chain Alphabody scAB_Env03_KC (designed binder)
chain: MGHHHHHHHHHHSSGHIEGRHMSIEEIQKPIATIQEAIAWIQKKIYMMTGGSGGGSGGGSGGGSGMSIEEIQKQIAAIQCQIAAIQKQIYAMTGGSGGGSGGGSGGGSGMSIEEIQKQIVAIMEQIVAIVKQISAMTP
modifications: Interchain disulfide between Cys80 of chain 1 and Cys80 of chain 2 (homodimer; paragraph 268, and FIG.11 prints 'scAB_Env03_KC (dimer)').
notes: also called Env03 Cys-mutant
In experiment [5], B5 gave a Kd of 0.62 nM, an off-rate (koff) of 2.4e-05 s⁻¹ and a kon of 38000 M⁻¹ s⁻¹.

B6: single-chain Alphabody scAB_Env03_PA (designed binder)
chain: MGHHHHHHHHHHSSGHIEGRHMSIEEIQKAIATIQEAIAWIQKKIYMMTGGSGGGSGGGSGGGSGMSIEEIQKQIAAIQKQIAAIQKQIYAMTGGSGGGSGGGSGGGSGMSIEEIQKQIVAIMEQIVAIVKQISAMTP
notes: Made by the same protocol as the parent (N-terminal His10 tag); The substitution has no printed number
Regarding B6, in [6], the “KD (phase 1)” value is 558 nM. Besides, the Kd was 13 nM in experiment [7] and approximately 10 nM in experiment [8]. The molecule further returned a kon in experiment [9] of approximately 100000 M⁻¹ s⁻¹. Moreover, the “KD (phase 2)” value in experiment [10] is 0.024 (-). The same molecule gave a koff in [11] of approximately 0.0001 s⁻¹.
